According to paper PMC5658516 (Cell Chemical Biology, 2017):

Target: T1, His10-Ub-Ub WT (UniProt P0CG48 1-76; P0CG48 1-76)
T1 construct: ubiquitin, distal moiety; ubiquitin, proximal moiety; two ubiquitins head to tail on one chain; also called linear diUb; M1-linked diUb; source: E. coli BL21-CodonPlus (DE3)-RIPL, purified (HisTrap, desalting); not shown: His10, N-terminal, kept
Assay: pull-down; 20 μg OTULINcat-ST with equimolar His10-diUb in PBS, 0.1% BSA, 5% glycerol, 0.1% Triton-X, 2 h 4 °C; OTULINcat-ST held on Strep-Tactin Sepharose, eight washes with 0.5% Triton-X; western blot
Conditions: both partners purified

binding result: binds
B1: OTULINcat-Strep-tag II C129A (domain or fragment, UniProt Q96BN8 80-352, looked up)
chain: LSVAPEMDIMDYCKKEWRGNTQKATCMKMGYEEVSQKFTSIRRVRGDNYAALRATLFQAMSQAVGLPPWLQDPELMLLPEKLISKYNWIKQWKLGLKFDGKNEDLVDKIKESLTLLRKKWAGLAEMRTAEARQIACDELFTNEAEEYSLYEAVKFLMLNRAIELYNDKEKGKEVPFFSVLLFARDTSNDPGQLLRNHLNQVGHTGGLEQVEMFLLAYAVRHTIQVYRLSKYNTEEFITVYPTDPPKDWPVVTLIAEDDRHYNIPVRVCEETSL
notes: also called OTULINcat C129A; OTULIN C129A; source: E. coli BL21-CodonPlus (DE3)-RIPL, purified (StrepTrap, desalting); not shown: Strep-tag II, C-terminal, kept
